Results taken from patent publication US20210277145A1 (INSERM INSTITUT NATIONAL DE LA SANTE ET DE LA RECHERCHE …, published 2021).

B1: KB-AT-002/003_ABP (VHH)
chain: QVQLQESGGGLVQAGGSLRLSCAASGRTFNNNGMGWFRQAPGKEREFVAAISWSGGSTYYADSVKGRYIMSRDNAKNTVYLQMNSLKPEDTAVYYCAARTRYNSGLFSRNYDYWGQGTQVTVSSGGGSGGGSGGGSGGGSQVQLQESGGGLVQPGGSLRLSCAASALTFSSRAWAWYRQAPGKQRELVASITGGGTTNYADSVKGRFTISRDNAKNTVYLQMNSLKPEDTAVHYCNGYRYTYAWGQGTQVTVSSGRGGGSGGGSGGGSGGGSQGLIGDIALPRWGALWGDSV
notes: It was detected with anti-His tag antibodies, so the protein tested carried a His tag; also called KB-AT-002/003_AlbBP
B2: KB-VWF-013bv_ABP (VHH)
chain: QVQLQSGGGLVQAGDSLRLSCAASGRTFIRYAMAWFRQAPGKEREFVAAIPQSGGRSYYADSVKGRFTISRDNAKNTVYLQMNSLKPEDTAVYSCAATSTYYGRSAYSSHSGGYDYWGQGTQVTVSSGGGSGGGSGGGSGGGSQVQLVQSGGGLVQAGDSLRLSCAASGRTFIRYAMAWFRQAPGKEREFVAAIPQSGGRSYYADSVKGRFTISRDNAKNTVYLQMNSLKPEDTAVYSCAATSTYYGRSAYSSHSGGYDYWGQGTQVTVSSGRGGGSLTPRGVRLGGGSQGLIGDIALPRWGALWGDSV
notes: A tag is not described; also called KB-VWF-013_ABP
B3: KB-AT-002/003 (VHH)
chain: QVQLQESGGGLVQAGGSLRLSCAASGRTFNNNGMGWFRQAPGKEREFVAAISWSGGSTYYADSVKGRYIMSRDNAKNTVYLQMNSLKPEDTAVYYCAARTRYNSGLFSRNYDYWGQGTQVTVSSGGGSGGGSGGGSGGGSQVQLQESGGGLVQPGGSLRLSCAASALTFSSRAWAWYRQAPGKQRELVASITGGGTTNYADSVKGRFTISRDNAKNTVYLQMNSLKPEDTAVHYCNGYRYTYAWGQGTQVTVSS
notes: A tag is not described, but a His tag is likely, since the ELISA detects with anti-His antibodies

What was measured:
[1] = molecular target: T1, biotinylated human albumin (human, UniProt P02768 25-609, biotinylated (sites not given)); assay: biolayer interferometry (Octet-QK), bt-albumin on streptavidin sensors, sdAb at 125 or 250 microgram/ml
T1 construct: Captured on streptavidin biosensors; also called human bt-albumin; bt-albumin
Method: (§1) Example 2: Binding of KB-AT-002/003_ABP to biotinylated human albumin in a biolayer-interferometry analysis assay. We tested the binding of KB-AT-002/003_ABP to biotinylated human albumin using Octet-QK equipment (FIG. 2). To this end, biotinylated albumin (bt-albumin) was diluted in phosphate-buffered saline with 0.1% Tween-20 (PBS-T) to a concentration of 200 microgram/ml for absorption to streptavidin-high binding capacity sensors (Fortébio, Menlo Park, Calif., USA). Sensors were rehydrated in 0.2 ml PBS-T for 15 min. Sensors were then incubated with 0.1 ml bt-albumin solution for 600 sec. Sensors were subsequently allowed to reach stable baseline levels via incubation with PBS-T for 300 sec. bt-Albumin coated sensors were then transferred to wells containing KB-AT-002/003_ABP (125 or 250 microgram/ml in PBS-T) and incubated for 300 sec in order to visualize association of KB-AT-002/003_ABP to immobilized bt-albumin. Following this association phase, sensors were transferred to wells containing PBS-T, and incubated for 900 sec, allowing dissociation of the KB-AT-002/003_ABP/bt-albumin complex.
(§2) Example 3: Binding of KB-VWF-013bv_ABP to biotinylated human or murine albumin in a biolayer-interferometry analysis assay. We tested the binding of KB-VWF-013bv_ABP (SEQ ID NO: 6) to biotinylated human or murine albumin using Octet-QK equipment (FIG. 3). To this end, biotinylated albumin (bt-albumin) was diluted in phosphate-buffered saline with 0.1% Tween-20 (PBS-T) to a concentration of 200 microgram/ml for absorption to streptavidin-high binding capacity sensors (Fortébio, Menlo Park, Calif., USA). Sensors were rehydrated in 0.2 ml PBS-T for 15 min. Sensors were then incubated with 0.1 ml bt-albumin solution for 600 sec. Sensors were subsequently allowed to reach stable baseline levels via incubation with PBS-T for 300 sec. bt-Albumin coated sensors were then transferred to wells containing KB-VWF-013bv_ABP (125 or 250 microgram/ml in PBS-T) and incubated for 900 sec in order to visualize association of KB-VWF-013bv_ABP to immobilized bt-albumin.

[2] = molecular target: T2, human antithrombin (human, UniProt P01008 33-464); assay: biolayer interferometry (Octet-QK), human antithrombin coupled to amine-reactive sensors, sdAb in solution (100 microgram/ml by paragraph 127)
T2 construct: also called AT
T2 sequence (P01008 33-464 limits assumed): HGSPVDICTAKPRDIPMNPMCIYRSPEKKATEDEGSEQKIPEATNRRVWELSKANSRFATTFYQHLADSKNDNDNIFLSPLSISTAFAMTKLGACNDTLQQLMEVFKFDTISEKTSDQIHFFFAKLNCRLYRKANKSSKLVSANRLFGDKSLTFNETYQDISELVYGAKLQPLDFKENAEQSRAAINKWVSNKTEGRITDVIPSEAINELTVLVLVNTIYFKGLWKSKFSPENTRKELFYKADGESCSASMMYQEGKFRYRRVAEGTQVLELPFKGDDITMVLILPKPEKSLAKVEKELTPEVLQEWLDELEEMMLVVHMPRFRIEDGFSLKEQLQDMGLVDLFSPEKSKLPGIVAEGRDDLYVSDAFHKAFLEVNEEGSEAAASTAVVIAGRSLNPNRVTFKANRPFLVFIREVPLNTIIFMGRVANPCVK
Method: Example 4: Binding of murine albumin to a complex of antithrombin and KB-AT-002/003_ABP. We tested the binding of albumin to KB-AT-002/003_ABP while the sdAb was bound to antithrombin via biolayer-interferometry analysis using Octet-QK equipment (FIG. 4). To this end, human antithrombin was diluted in 0.1 M Mes (pH 5.0) to a concentration of 50 microgram/ml for coupling to EDC/NHS-activated amine-reactive biosensors (Fortébio, Menlo Park, Calif., USA). Sensors were rehydrated in 0.2 ml 0.1 M MES, pH 5.0 for 300 sec. Sensors were then activated via incubation with 0.1 ml 0.2 M EDC/0.095 M NHS mixture for 300 sec and subsequently incubated with 0.1 ml antithrombin-solution for 600 sec. Unoccupied amine-reactive sites were quenched by incubating with 1M ethanolamine for 180 sec, and sensors were allowed to reach stable baseline levels via incubation with phosphate-buffered saline supplemented with 0.1% Tween-20 (PBS-T) for 300 sec. Antithrombin-coated sensors were then transferred to wells containing KB-AT-002/003_ABP (100 microgram/ml in PBS-T) and incubated for 600 sec in order to visualize association of KB-AT-002/003_ABP to immobilized antithrombin. […] As is showing in the lower panel of FIG. 4, KB-AT-002/003_ABP bound readily to immobilized antithrombin.

[3] = molecular target: T3, murine albumin (murine, UniProt P07724 25-608); assay: immunosorbent assay: murine albumin coated at 10 microgram/ml, bound sdAb probed with peroxidase-labeled anti-His tag antibody, corrected for non-coated wells
Excerpt: (§3) Example 1: Binding of KB-AT-002/003_ABP to human and murine albumin in an immunosorbent assay. Binding to albumin may be favorable to increase the size of sdAbs, which are smaller sized than conventional immunoglobulins (15 kDa versus 150 kDa, for a monovalent sdAb and IgG, respectively). A construct was established encoding a bi-paratopic sdAb (KB-AT-002/003) fused to an albumin binding peptide (ABP, with the amino acid sequence […]) resulting in the sdAb designated KB-AT-002/003_ABP (SEQ ID NO: 18). Purified KB-AT-002/003_ABP was tested for binding to both human and murine albumin. Human and murine albumin were immobilized (10 microgram/ml) in 10 mM NaHCO₃, 50 mM Na2CO3 (pH 9.5) in a volume of 50 microliter in microtiter plates (Greiner Bio-One, Les Ulis, France) for 16 h at 4° C. As a negative control, no albumin was immobilized. […]
(§4) Wells were then washed three times with 200 microliter/well using TBS-T. Bound of KB-AT-002/003_ABP was probed with peroxidase-labeled monoclonal anti-His tag antibodies (Abcam, diluted 1/10000) for 2 hours at 37° C. with 50 microliter/well. Wells were then washed three times with 100 microliter/well using TBS-T. Residual peroxidase activity was detected by measuring peroxidase-mediated […] of 3,3′,5,5′-tetramethylbenzidine. […]

[4] = molecular target: T4, biotinylated murine albumin (murine, UniProt P07724 25-608, biotinylated (sites not given)); assay: biolayer interferometry (Octet-QK), bt-albumin on streptavidin sensors, sdAb at 125 or 250 microgram/ml
T4 construct: Captured on streptavidin biosensors; also called murine bt-albumin; bt-albumin
Method: as §1, §2

[5] = molecular target: T5, human albumin (human, UniProt P02768 25-609); assay: ELISA, albumin coated at 10 microgram/ml, anti-His tag detection
T5 construct: Coated on microtiter wells at 10 microgram/ml
Excerpt: as §3, §4

[6] = molecular target: T3, murine albumin; assay: as above
Excerpt: as §3, §4

Row | Binder | Kd [1] | binding result [2] | binding result [3] | Kd [4] | binding result [5] | binding result [6]
1 | B1 | 420 nM | binds | binds | – | – | –
2 | B2 | 99 nM | – | – | 83 nM | – | –
3 | B3 | – | – | – | – | no binding (tested: 0-10 microgram/ml) | no binding (tested: 0-10 microgram/ml)
